In patent publication US20090318342A1, “Compounds” (IMPERIAL INNOVATIONS LIMITED, published 2009):

Experiments:
[1] = target: T1, ADAMTS-5 (Homo sapiens (Human), UniProt Q9UNA0); assay: GST-IGD-FLAG substrate assay, Ki(app)
T1 sequence: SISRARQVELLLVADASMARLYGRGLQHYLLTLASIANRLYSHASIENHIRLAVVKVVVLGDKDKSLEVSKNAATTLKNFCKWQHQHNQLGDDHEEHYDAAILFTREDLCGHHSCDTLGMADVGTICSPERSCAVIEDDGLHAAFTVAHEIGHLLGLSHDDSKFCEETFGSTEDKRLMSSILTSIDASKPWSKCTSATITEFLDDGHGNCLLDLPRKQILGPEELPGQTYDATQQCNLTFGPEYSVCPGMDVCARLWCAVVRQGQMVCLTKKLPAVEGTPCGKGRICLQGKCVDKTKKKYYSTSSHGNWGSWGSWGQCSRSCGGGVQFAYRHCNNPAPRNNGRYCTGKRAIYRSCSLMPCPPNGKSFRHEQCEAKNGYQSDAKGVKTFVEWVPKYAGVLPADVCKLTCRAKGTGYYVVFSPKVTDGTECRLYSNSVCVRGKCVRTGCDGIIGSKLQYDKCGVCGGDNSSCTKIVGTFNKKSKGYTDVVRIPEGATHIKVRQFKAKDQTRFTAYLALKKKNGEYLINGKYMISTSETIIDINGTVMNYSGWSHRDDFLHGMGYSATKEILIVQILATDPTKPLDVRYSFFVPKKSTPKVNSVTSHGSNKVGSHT
Description: (§1) Aggrecanase assays were carried out in 50 mM Tris HCl pH 7.5, 150 mM NaCl, 10 mM CaCl₂, 0.02% NaN₃, 0.05% Brij-35 at 37° C. When N-TIMP-3 was used, the inhibitor was preincubated with the enzyme for 1 hour. Reaction volumes were a total of 10 μl, consisting of 5 μl of GST-IGD-FLAG substrate (34 μM), and 5 μl of ADAMTS-4 or ADAMTS-5 (2 nM) with or without inhibitor. Enzyme amounts and incubation times were as indicated. Enzyme reactions were stopped at appropriate time points with the addition of 10 μl 2×SDS-PAGE samples loading buffer containing 20 mM EDTA. Reactions were then applied to a 10% SDS-PAGE analysis. Proteins were stained using Coomassie Brilliant Blue R-250. The stained gels were then scanned using a scanning densitometer (Biorad GS-710, Hemel Hempstead, UK) and the band intensity of the product (17 kDa) quantified using the 1D Phoretix quantification software (Nonlinear Dynamics, Newcastle upon Tyne, UK). Background subtraction was done using the rolling ball method, and band intensity expressed as pixel volumes.

[2] = target: T2, ADAMTS-4 (as used in Example 4; form not stated) (Homo sapiens (Human), UniProt O75173); assay: GST-IGD-FLAG substrate assay, Ki(app)
T2 sequence: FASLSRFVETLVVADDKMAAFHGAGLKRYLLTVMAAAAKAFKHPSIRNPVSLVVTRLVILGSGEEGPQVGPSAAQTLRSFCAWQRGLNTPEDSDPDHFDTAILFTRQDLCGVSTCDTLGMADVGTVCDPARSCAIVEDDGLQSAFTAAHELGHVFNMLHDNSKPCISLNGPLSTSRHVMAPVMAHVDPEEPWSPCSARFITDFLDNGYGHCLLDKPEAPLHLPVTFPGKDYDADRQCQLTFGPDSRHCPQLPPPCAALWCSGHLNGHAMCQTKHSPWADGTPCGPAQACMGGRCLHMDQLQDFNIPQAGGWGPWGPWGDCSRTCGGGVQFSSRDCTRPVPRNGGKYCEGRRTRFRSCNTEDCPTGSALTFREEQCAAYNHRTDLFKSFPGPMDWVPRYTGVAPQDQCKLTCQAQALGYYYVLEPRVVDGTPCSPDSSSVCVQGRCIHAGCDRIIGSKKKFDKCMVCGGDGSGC
Description: as §1

[3] = target: gelatinase A (MMP-2) (Homo sapiens (Human), UniProt P08253); assay: enzyme inhibition kinetics, Ki(app), as in Example 1
[4] = target: full-length collagenase 1 (MMP-1) (Homo sapiens (Human), UniProt P03956); assay: as above

Ki [1]: 1.4 nM
Ki [2]: 67 nM
Ki [3]: > 250 nM
Ki [4]: > 500 nM
B1: (-2A)N-TIMP-3 (other)
chain: AACTCSPSHPQDAFCNSDIVIRAKVVGKKLVKEGPFGTLVYTIKQMKMYRGFTKMPHVQYIHTEASESLCGLKLEVNKYQYLLTGRVYDGKMYTGLCNFVERWDQLTLSQRKGLNYRYHLGCN
